# Laboratory results from paper PMC6166728, “Structure–function analyses of the bacterial zinc metalloprotease effector protein GtgA uncover key residues required for deactivating NF-κB” (The Journal of Biological Chemistry, 2018).
# B1: p65(20–188) (domain or fragment, murine)
# chain: AYVEIIEQPKQRGMRFRYKCEGRSAGSIPGERSTDTTKTHPTIKINGYTGPGTVRISLVTKDPPHRPHPHELVGKDCRDGYYEADLCPDRSIHSFQNLGIQCVKKRDLEQAISQRIQTNNNPFHVPIEEQRGDYDLNAVRLCFQVTVRDPAGRPLLLTPVLSHPIFDNRA
# notes: single alanine left by ULP1 cleavage of the His6–SUMO tag, before the first residue of p65; NF-κB subunit p65 (RelA), murine, amplified from RAW264.7 cDNA, N-terminal domain residues 20–188; Cloned in pE-SUMO (LifeSensors); also called p65 NTD; p65 N-terminal domain; source: E. coli BL21 PC2, purified (Ni-NTA, ULP1 cleavage, Superdex 75 SEC); not shown: His6, N-terminal, cleaved; SUMO, …
# Biological target: T1, GtgA(20–228)^E183Q (Salmonella Typhimurium strain ATCC …, UniProt A0A0F6AZI6 20-228, E183Q)
# T1 construct: residues left by TEV cleavage of the His6–GST tag, before the first residue of GtgA; Cloned in pETM30 (TEV-cleavable N-terminal His6 and GST); source: E. coli BL21 PC2, purified (GSH–Sepharose, TEV cleavage, Superdex 75 SEC); not shown: His6, N-terminal, cleaved; GST, N-terminal, cleaved
# T1 sequence: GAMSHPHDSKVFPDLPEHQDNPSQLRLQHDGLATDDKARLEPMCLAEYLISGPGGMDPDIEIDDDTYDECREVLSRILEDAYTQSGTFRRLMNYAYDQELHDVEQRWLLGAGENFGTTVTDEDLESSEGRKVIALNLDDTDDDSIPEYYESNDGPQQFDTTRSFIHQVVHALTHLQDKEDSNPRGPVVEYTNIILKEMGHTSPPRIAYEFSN
# Assay: crystal structure; GtgA(20–228)^E183Q–p65(20–188) complex, 175 μM of each protein mixed immediately prior to crystallization; sitting drop, 20 °C, 0.1 M Tris pH 8.3, 0.5 M LiCl, 32.5% (w/v) PEG 6000; Zn2+-free; single heterodimer in the asymmetric unit
# Conditions: both partners purified
binder,measurement,value
B1,binding result,binds
